# Residue numbers refer to the chain shown, from its start.
# T1: human FcγRIIb extracellular domain with C-terminal His tag (human, UniProt P31994 43-217)
# T1 sequence (looked up): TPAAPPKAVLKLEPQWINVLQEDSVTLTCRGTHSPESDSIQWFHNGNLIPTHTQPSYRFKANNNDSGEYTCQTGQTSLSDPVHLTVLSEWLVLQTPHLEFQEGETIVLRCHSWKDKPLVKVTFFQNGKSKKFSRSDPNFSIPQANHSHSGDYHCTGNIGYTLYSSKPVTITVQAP
# T2: human FcγRIIa type H (131His) extracellular domain with C-terminal His tag (human, UniProt P12318 34-217)
# T2 sequence (looked up): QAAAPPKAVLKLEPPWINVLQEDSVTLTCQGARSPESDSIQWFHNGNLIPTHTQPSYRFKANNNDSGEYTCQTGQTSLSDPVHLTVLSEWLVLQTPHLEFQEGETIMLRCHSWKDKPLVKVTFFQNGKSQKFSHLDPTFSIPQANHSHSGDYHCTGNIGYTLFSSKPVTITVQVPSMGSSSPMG
# T3: human FcγRIIa type R (131Arg) extracellular domain with C-terminal His tag (human, UniProt P12318 34-217)
# T3 sequence (looked up): T2 sequence (looked up) with H134R
# T4: human FcγRIIb extracellular domain with C-terminal His tag (human, UniProt P31994 43-217)
# T4 sequence (looked up): T1 sequence (looked up)
# T5: human FcγRIIb extracellular domain with C-terminal His tag (human, UniProt P31994 43-217)
# T5 sequence (looked up): T1 sequence (looked up)
# B1: IL6R-BP550/IL6R-L (antibody, human IgG1, kappa)
# heavy: QVQLQESGPGLVKPSETLSLTCAVSGHSISHDHAWSWVRQPPGEGLEWIGFISYSGITNYNPSLQGRVTISRDNSKNTLYLQMNSLRAEDTAVYYCARSLARTTAMDYWGEGTLVTVSSASTKGPSVFPLAPSSKSTSGGTAALGCLVKDYFPEPVTVSWNSGALTSGVHTFPAVLQSSGLYSLSSVVTVPSSSLGTQTYICNVNHKPSNTKVDKKVEPKSCDKTHTCPPCPAPELLGDDSVFLFPPKPKDTLMISRTPEVTCVVIDVGEEDGDVKFNWYVDGVEVHNAKTKPREEQDNSTYRVVSVLTVLHQDWLNGKEYKCKVSNKALPRPIEKTISKAKGQPREPQVYTLPPSRDELTKNQVSLTCLVKGFYPSDIAVEWESNGQPENNYKTTPPVLDSDGSFFLYSKLTVDKSRWQQGNVFSCSVMHEALHNHYTQESLSLSP
# light: not shown
# B2: IL6R-BP536/IL6R-L (antibody, human IgG1, kappa)
# heavy: B1 heavy with E235D, G269S, D274E, A329G, P398M
# light: not shown
# B3: IL6R-BP565/IL6R-L (antibody, human IgG1, kappa)
# heavy: B1 heavy with E235D, I266V, G269A, D274E
# light: not shown
# B4: IL6R-BP551/IL6R-L (antibody, human IgG1, kappa)
# heavy: B1 heavy with G269S
# light: not shown
# B5: IL6R-BP568/IL6R-L (antibody, human IgG1, kappa)
# heavy: B1 heavy with E235D, D239G, G269A, D274E, D298Y, R332A
# light: not shown
# B6: IL6R-BP539/IL6R-L (antibody, human IgG1, kappa)
# heavy: B1 heavy with D274P
# light: not shown
# B7: IL6R-BP567/IL6R-L (antibody, human IgG1, kappa)
# heavy: B1 heavy with E235D, D239G, G269A, D274E, R332A
# light: not shown
# B8: IL6R-BP493/IL6R-L (antibody, human IgG1, kappa)
# heavy: B1 heavy with D239G, G269A, D274E, R332A
# light: not shown
# B9: IL6R-BP441/IL6R-L (antibody, human IgG1, kappa)
# heavy: B1 heavy with E235D, I266V, V268L, G269S, D274E, D298Y
# light: not shown
# B10: IL6R-BP481/IL6R-L (antibody, human IgG1, kappa)
# heavy: B1 heavy with E235D, G269A, D274E, D298Y, R332A
# light: not shown
# B11: IL6R-BP440/IL6R-L (antibody, human IgG1, kappa)
# heavy: B1 heavy with E235D, G269S, D274E, D298Y
# light: not shown
# B12: IL6R-BP265/IL6R-L (antibody, human IgG1, kappa)
# heavy: B1 heavy with I266V, G269S, D274E
# light: not shown
# B13: IL6R-BP435/IL6R-L (antibody, human IgG1, kappa)
# heavy: B1 heavy with E235D, I266V, G269S, E270D, D274E, K328A, I334T
# light: not shown
# B14: IL6R-BP268/IL6R-L (antibody, human IgG1, kappa)
# heavy: B1 heavy with E235D, I266V, G269S, D274E, R332A
# light: not shown
# B15: IL6R-BP911/IL6R-L (antibody, human IgG1, kappa)
# heavy: B1 heavy with D239G, I266V, G269S, E270H, G273P, D274E, D298Y, R332K
# light: not shown
# B16: IL6R-BP110/IL6R-L (antibody, human IgG1, kappa)
# heavy: B1 heavy with D239G, I266V, G269S, E270N, G273P, D274E, D298Y, R332A
# light: not shown
# B17: IL6R-BP126/IL6R-L (antibody, human IgG1, kappa)
# heavy: B1 heavy with D239G, I266V, G269S, E270H, G273P, D274E, D298Y, K328L, R332A
# light: not shown
# B18: IL6R-BP118/IL6R-L (antibody, human IgG1, kappa)
# heavy: B1 heavy with D239G, I266V, G269S, E270H, G273P, D274E, D298Y, K328S, R332A
# light: not shown
# B19: IL6R-2B172/IL6R-L (antibody, human IgG1, kappa)
# heavy: B1 heavy with D239G, I266V, G269S, E270H, G273P, D274E, D298Y, V325M, R332A
# light: not shown
# B20: IL6R-BP100/IL6R-L (antibody, human IgG1, kappa)
# heavy: B1 heavy with D239G, I266V, G269A, E270H, G273P, D274E, D298Y, R332A
# light: not shown
# B21: IL6R-BP116/IL6R-L (antibody, human IgG1, kappa)
# heavy: B1 heavy with D239G, I266V, G269S, E270H, G273P, D274E, D298Y, K328T, R332A
# light: not shown
# B22: IL6R-BP121/IL6R-L (antibody, human IgG1, kappa)
# heavy: B1 heavy with D239G, I266V, G269S, E270H, G273P, D274E, D298Y, K328Q, R332A
# light: not shown
# B23: IL6R-BP103/IL6R-L (antibody, human IgG1, kappa)
# heavy: B1 heavy with D239G, I266V, G269V, E270H, G273P, D274E, D298Y, R332A
# light: not shown
# B24: IL6R-BP102/IL6R-L (antibody, human IgG1, kappa)
# heavy: B1 heavy with D239G, I266V, G269Q, E270H, G273P, D274E, D298Y, R332A
# light: not shown
# B25: IL6R-BP112/IL6R-L (antibody, human IgG1, kappa)
# heavy: B1 heavy with D239G, I266V, G269S, E270H, D274E, D298Y, R332A
# light: not shown
# B26: IL6R-BP106/IL6R-L (antibody, human IgG1, kappa)
# heavy: B1 heavy with D239G, I266V, G269S, E270D, G273P, D274E, D298Y, R332A
# light: not shown
# B27: IL6R-2B128/IL6R-L (antibody, human IgG1, kappa)
# heavy: B1 heavy with D239G, I266V, G269S, E270H, G273P, D274E, R332A
# light: not shown
# B28: IL6R-2B169/IL6R-L (antibody, human IgG1, kappa)
# heavy: B1 heavy with D239G, I266V, G269S, E270H, G273P, D274E, D298Y, V325I, R332A
# light: not shown
# B29: IL6R-2B002/IL6R-L (antibody, human IgG1, kappa)
# heavy: B1 heavy with E235D, D239G, I266V, G269S, E270H, G273P, D274E, D298Y, R332A
# light: not shown
# B30: IL6R-BP142/IL6R-L (antibody, human IgG1, kappa)
# heavy: B1 heavy with D239G, I266V, G269S, E270H, G273P, D274E, D298Y, K328N, R332A
# light: not shown
# B31: IL6R-BP912/IL6R-L (antibody, human IgG1, kappa)
# heavy: B1 heavy with D239G, I266V, G269S, E270H, G273P, D274E, D298Y
# light: not shown
# B32: IL6R-BP136/IL6R-L (antibody, human IgG1, kappa)
# heavy: B1 heavy with D239G, I266V, G269S, E270H, G273P, D274E, D298Y, K328A, R332A
# light: not shown
# B33: IL6R-BP078/IL6R-L (antibody, human IgG1, kappa)
# heavy: B1 heavy with D239G, I266V, G269S, E270H, G273P, D274E, D298Y, R332M
# light: not shown
# B34: IL6R-BP117/IL6R-L (antibody, human IgG1, kappa)
# heavy: B1 heavy with D239G, I266V, G269S, E270H, G273P, D274E, D298Y, K328D, R332A
# light: not shown
# B35: IL6R-BP499/IL6R-L (antibody, human IgG1, kappa)
# heavy: B1 heavy with E235D, G269A, D274E, P398L
# light: not shown
# B36: IL6R-BP489/IL6R-L (antibody, human IgG1, kappa)
# heavy: B1 heavy with E235D, G269A, D274E, P398M
# light: not shown
# B37: IL6R-BP494/IL6R-L (antibody, human IgG1, kappa)
# heavy: B1 heavy with I266V, G269A, D274E
# light: not shown
# Target: T1, human FcγRIIb extracellular domain with …
# Experiment: SPR
row,KD (IIaR)/KD (IIb),Binder
1,44.2,B1
2,26.6,B2
3,41.5,B3
4,38.1,B4
5,46.1,B5
6,38,B6
7,64.4,B7

# Target: T2, human FcγRIIa type H (131His) …
# Experiment: SPR
row,Kd,Binder
1,13000 nM,B8
2,3 nM,B9
3,8300 nM,B10
4,1500 nM,B11

# Target: T1, human FcγRIIb extracellular domain with …
# Experiment: SPR
# Remark: another data set of the same source
row,KD (IIaH)/KD (IIb),Binder
1,655,B1
2,438,B2
3,856,B3
4,436,B4
5,748,B5
6,667,B6
7,1230,B7

# Target: T3, human FcγRIIa type R (131Arg) …
# Experiment: SPR
row,Kd,Binder
1,830 nM,B12
2,120 nM,B13
3,11 nM,B8
4,1300 nM,B14

# Target: T4, human FcγRIIb extracellular domain with …
# Experiment: SPR Biacore, ratio of KDs
row,KD (IIb) of the parent polypeptide/KD (IIb) of the altered polypeptide,Binder
1,3.5 fold (parent IL6R-B3/IL6R-L),B15
2,2.1 fold (parent IL6R-B3/IL6R-L),B16
3,2.2 fold (parent IL6R-B3/IL6R-L),B17
4,2.7 fold (parent IL6R-B3/IL6R-L),B18
5,4 fold (parent IL6R-B3/IL6R-L),B19
6,2.9 fold (parent IL6R-B3/IL6R-L),B20
7,2.8 fold (parent IL6R-B3/IL6R-L),B21
8,2.8 fold (parent IL6R-B3/IL6R-L),B22
9,2.5 fold (parent IL6R-B3/IL6R-L),B23
10,3.4 fold (parent IL6R-B3/IL6R-L),B24
11,9.7 fold (parent IL6R-B3/IL6R-L),B25
12,3.3 fold (parent IL6R-B3/IL6R-L),B26
13,2.1 fold (parent IL6R-B3/IL6R-L),B27
14,2.6 fold (parent IL6R-B3/IL6R-L),B28
15,3.3 fold (parent IL6R-B3/IL6R-L),B29
16,2.6 fold (parent IL6R-B3/IL6R-L),B30
17,2.1 fold (parent IL6R-B3/IL6R-L),B31
18,3.9 fold (parent IL6R-B3/IL6R-L),B32
19,2.8 fold (parent IL6R-B3/IL6R-L),B33
20,3.9 fold (parent IL6R-B3/IL6R-L),B34

# Target: T5, human FcγRIIb extracellular domain with …
# Experiment: ratio of SPR KDs
row,KD (IIaR)/KD (IIb),Binder
1,38.3,B35
2,42.3,B36
3,38.6,B37

# From US20230140797A1 (published 2023)
